According to US20120213763A1 (COUNCIL OF SCIENTIFIC AND INDUSTRIAL RESEARCH, published 2012):
Read-outs that look alike come from different tables or passages of the source.

How the values were obtained:
Experiment in all cases: cell-based or functional assay
[1] = target: human plasminogen (HPG) (human) (UniProt P00747)
human plasminogen (HPG) [2] = target: T1, human plasminogen (HPG) (human, UniProt P00747 97-810)
human plasminogen (HPG) [3] = target: T1, human plasminogen (HPG); remark: listed apart in the source

T1 sequence (P00747 97-810): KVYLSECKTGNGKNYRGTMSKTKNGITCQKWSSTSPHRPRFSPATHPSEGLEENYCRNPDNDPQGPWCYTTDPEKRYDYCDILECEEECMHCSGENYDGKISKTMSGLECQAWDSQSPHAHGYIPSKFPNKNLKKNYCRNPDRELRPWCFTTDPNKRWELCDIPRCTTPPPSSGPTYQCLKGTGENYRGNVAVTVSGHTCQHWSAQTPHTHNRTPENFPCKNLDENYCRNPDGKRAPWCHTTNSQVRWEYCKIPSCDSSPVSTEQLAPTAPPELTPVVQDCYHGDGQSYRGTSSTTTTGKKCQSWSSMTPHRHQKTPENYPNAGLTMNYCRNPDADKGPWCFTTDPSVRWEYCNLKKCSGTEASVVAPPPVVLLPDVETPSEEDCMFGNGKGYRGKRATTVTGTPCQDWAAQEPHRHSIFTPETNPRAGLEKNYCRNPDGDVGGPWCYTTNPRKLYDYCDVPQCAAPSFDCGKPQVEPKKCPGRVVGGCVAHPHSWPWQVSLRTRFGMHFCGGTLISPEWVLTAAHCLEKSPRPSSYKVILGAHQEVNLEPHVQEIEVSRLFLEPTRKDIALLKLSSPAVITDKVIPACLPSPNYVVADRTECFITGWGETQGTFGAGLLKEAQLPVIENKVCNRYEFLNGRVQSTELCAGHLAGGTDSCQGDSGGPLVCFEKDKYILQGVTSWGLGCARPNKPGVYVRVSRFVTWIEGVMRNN
Chain of human plasminogen (HPG) (human) (P00747 97-810): as above

“PEGylated SK C-383 Cys (SEQ ID NO 492), Cys at C + 1 position of SK 1-383, G3 (from UniProt P00779 27-409)” gave a % Plasminogen activation [1] of 92%.

B1: bi-pegylated NC 1-383 (SEQ ID NO 493), Cys at N - 1 and at C + 1 position in SK (1-383, G3) (other)
chain: CIAGPEWLLDRPSVNNSQLVVSVAGTVEGTNQDISLKFFEIDLTSRPAHGGKTEQGLSPKSKPFATDSGAMSHKLEKADLLKAIQEQLIANVHSNDDYFEVIDFASDATITDRNGKVYFADKDGSVTLPTQPVQEFLLSGHVRVRPYKEKPIQNQAKSVDVEYTVQFTPLNPDDDFRPGLKDTKLLKTLAIGDTITSQELLAQAQSILNKNHPGYTIYERDSSIVTHDNDIFRTILPMDQEFTYRVKNREQAYRINKKSGLNEEINNTDLISEKYYVLKKGEKPYDPFDRSHLKLFTIKYVDVDTNELLKSEQLLTASERNLDFRDLYDPRDKAKLLYNNLDAFGIMDYTLTGKVEDNHDDTNRIITVYMGKRPEGENASYHLAGGGC
modifications: PEG on the Cys at N - 1 and on the C-terminal Cys placed after three glycine residues
For B1, the “% Plasminogen Activation* (pre-complexed with equimolar plasmin)” value (from here on “% Plasminogen Activation*”) (human plasminogen (HPG) [2]) was 92%, the “% Plasminogen activation” value (human plasminogen (HPG) [2]) was < 5% and the “Lag” value (human plasminogen (HPG) [2]) was 12 min.

B2: native streptokinase nSK (1-414) ATCC 12449 (SEQ ID NO 1) (other)
chain: IAGPEWLLDRPSVNNSQLVVSVAGTVEGTNQDISLKFFEIDLTSRPAHGGKTEQGLSPKSKPFATDSGAMSHKLEKADLLKAIQEQLIANVHSNDDYFEVIDFASDATITDRNGKVYFADKDGSVTLPTQPVQEFLLSGHVRVRPYKEKPIQNQAKSVDVEYTVQFTPLNPDDDFRPGLKDTKLLKTLAIGDTITSQELLAQAQSILNKNHPGYTIYERDSSIVTHDNDIFRTILPMDQEFTYRVKNREQAYRINKKSGLNEEINNTDLISEKYYVLKKGEKPYDPFDRSHLKLFTIKYVDVDTNELLKSEQLLTASERNLDFRDLYDPRDKAKLLYNNLDAFGIMDYTLTGKVEDNHDDTNRIITVYMGKRPEGENASYHLAYDKDRYTEEEREVYSYLRYTGTPIPDNPNDK
B2 was tested, and the “% Plasminogen Activation*” value (human plasminogen (HPG) [2]) was 100%, the “% Plasminogen activation” value (human plasminogen (HPG) [2]) was 100% and the “Lag” value (human plasminogen (HPG) [2]) was 1 min. For the same molecule, the “% Plasminogen activation” value (human plasminogen (HPG) [3]) was 100%.

B3: bi-pegylated NC 1-414 (SEQ ID NO 491), Cys at N - 1 and at C + 1 position in SK (other)
chain: CIAGPEWLLDRPSVNNSQLVVSVAGTVEGTNQDISLKFFEIDLTSRPAHGGKTEQGLSPKSKPFATDSGAMSHKLEKADLLKAIQEQLIANVHSNDDYFEVIDFASDATITDRNGKVYFADKDGSVTLPTQPVQEFLLSGHVRVRPYKEKPIQNQAKSVDVEYTVQFTPLNPDDDFRPGLKDTKLLKTLAIGDTITSQELLAQAQSILNKNHPGYTIYERDSSIVTHDNDIFRTILPMDQEFTYRVKNREQAYRINKKSGLNEEINNTDLISEKYYVLKKGEKPYDPFDRSHLKLFTIKYVDVDTNELLKSEQLLTASERNLDFRDLYDPRDKAKLLYNNLDAFGIMDYTLTGKVEDNHDDTNRIITVYMGKRPEGENASYHLAYDKDRYTEEEREVYSYLRYTGTPIPDNPNDKC
modifications: PEG (methoxy-PEG maleimide, 20 KDa) on the Cys at N - 1 and on the Cys at C + 1
For B3, the “% Plasminogen Activation*” value (human plasminogen (HPG) [2]) was 88%, the “% Plasminogen activation” value (human plasminogen (HPG) [2]) was < 5% and the “Lag” value (human plasminogen (HPG) [2]) was 14 min.
